Results from patent US20240400614A1, “CLEAVABLE PEPTIDES AND METHODS OF USE THEREOF” (Bright Peak Therapeutics AG, priority 2023, published 2024).
Square brackets hold non-standard residues; d marks the D form. Ends that are not written are not given here. Tyr(3-NO2) = N[C@@H](Cc1ccc(O)c([N+](=O)[O-])c1)C(=O)O; Nle = CCCC[C@H](N)C(=O)O; 2Abz = Nc1ccccc1C(=O)O

Key:
Format in all cases: biochemical
MMP-2 = target: T1, MMP-2 (Homo sapiens, UniProt P08253); experiment: FRET peptide cleavage efficiency with MMP-2
T1 construct: purchased SIGMA PF023
T1 sequence (P08253 110-660): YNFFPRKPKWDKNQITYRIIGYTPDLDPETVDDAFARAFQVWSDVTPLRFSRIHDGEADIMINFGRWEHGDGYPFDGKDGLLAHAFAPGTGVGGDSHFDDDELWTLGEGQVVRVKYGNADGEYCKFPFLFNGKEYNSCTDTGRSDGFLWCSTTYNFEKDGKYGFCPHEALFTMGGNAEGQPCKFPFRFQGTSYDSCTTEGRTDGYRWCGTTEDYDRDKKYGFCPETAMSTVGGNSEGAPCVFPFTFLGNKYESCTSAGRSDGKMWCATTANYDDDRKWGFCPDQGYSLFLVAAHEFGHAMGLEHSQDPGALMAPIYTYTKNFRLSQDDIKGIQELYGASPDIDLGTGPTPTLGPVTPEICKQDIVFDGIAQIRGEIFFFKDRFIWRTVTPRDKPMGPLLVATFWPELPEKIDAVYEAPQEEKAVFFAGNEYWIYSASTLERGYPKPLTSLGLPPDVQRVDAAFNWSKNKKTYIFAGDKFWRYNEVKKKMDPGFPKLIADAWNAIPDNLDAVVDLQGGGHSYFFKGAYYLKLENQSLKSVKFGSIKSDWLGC

uPA = uPA (Homo sapiens, UniProt P00749); experiment: FRET peptide cleavage efficiency with uPA
matriptase = target: T2, matriptase (Homo sapiens, UniProt Q9Y5Y6); experiment: FRET peptide cleavage efficiency with matriptase
T2 construct: purchased R&D Systems 3946-SEB
T2 sequence (Q9Y5Y6 615-855 limits assumed): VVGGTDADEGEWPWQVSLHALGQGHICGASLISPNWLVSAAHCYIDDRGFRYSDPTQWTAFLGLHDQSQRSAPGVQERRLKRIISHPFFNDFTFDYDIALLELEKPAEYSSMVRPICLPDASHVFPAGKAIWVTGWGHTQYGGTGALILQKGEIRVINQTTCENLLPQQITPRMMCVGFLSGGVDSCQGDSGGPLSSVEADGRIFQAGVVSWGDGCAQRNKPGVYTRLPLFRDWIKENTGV

[1] = 200 uM linker, 1 ug/ml protease, 37° C., buffer C pH 7.5
[2] = 200 uM linker, 1 ug/ml protease, 37° C., buffer A pH 8.5
[3] = 200 uM linker, 1 ug/ml protease, 37° C., buffer B pH 9.0

Row | Substance | % cleavage MMP-2 t = 15 min (MMP-2; [1]) | % cleavage MMP-2 t = 60 min (MMP-2; [1]) | % cleavage MMP-2 t = 120 min (MMP-2; [1]) | % cleavage uPA t = 15 min (uPA; [2]) | % cleavage uPA t = 60 min (uPA; [2]) | % cleavage uPA t = 120 min (uPA; [2]) | % cleavage Matriptase t = 15 min (matriptase; [3]) | % cleavage Matriptase t = 60 min (matriptase; [3]) | % cleavage Matriptase t = 120 min (matriptase; [3]) | % cleavage uPA t = 15 min (uPA) | % cleavage uPA t = 60 min (uPA) | % cleavage uPA t = 120 min (uPA) | % cleavage Matriptase t = 15 min (matriptase) | % cleavage Matriptase t = 60 min (matriptase) | % cleavage Matriptase t = 120 min (matriptase) | % cleavage MMP-2 t = 15 min (MMP-2) | % cleavage MMP-2 t = 60 min (MMP-2) | % cleavage MMP-2 t = 120 min (MMP-2)
1 | KLFSSKQ ([2Abz]KLFSSKQ[Tyr(3-NO2)]-NH2) [LNK072] | 1% | 13% | 25% | – | – | – | – | – | – | – | – | – | – | – | – | – | – | –
2 | KWGKSAPLGLAG ([2Abz]KWGKSAPLGLAG[Tyr(3-NO2)]-NH2) [LNK026] | 69% | 98% | 98% | 0% | 1% | 3% | 97% | 86% | 86% | – | – | – | – | – | – | – | – | –
3 | PASNRRLPLGLAG ([2Abz]PASNRRLPLGLAG[Tyr(3-NO2)]-NH2) [LNK018] | 40% | 83% | 87% | 0% | 0% | 0% | 49% | 92% | 97% | – | – | – | – | – | – | – | – | –
4 | RQRRS-Nle-PLGLAG ([2Abz]RQRRS[Nle]PLGLAG[Tyr(3-NO2)]-NH2) [LNK025] | 64% | 97% | 98% | 0% | 1% | 2% | 97% | 84% | 77% | – | – | – | – | – | – | – | – | –
5 | RQRRSAAPLGLAG ([2Abz]RQRRSAAPLGLAG[Tyr(3-NO2)]-NH2) [LNK028] | 72% | 99% | 99% | 0% | 1% | 2% | 97% | 86% | 79% | – | – | – | – | – | – | – | – | –
6 | RQRRSAPLGLAG ([2Abz]RQRRSAPLGLAG[Tyr(3-NO2)]-NH2) [LNK009] | 72% | 99% | 99% | 0% | 1% | 3% | 71% | 45% | 31% | – | – | – | – | – | – | – | – | –
7 | RQRRSVVGG ([2Abz]RQRRSVVGG[Tyr(3-NO2)]-NH2) [LNK029] | 0% | 0% | 0% | 0% | 0% | 1% | 96% | 96% | 98% | – | – | – | – | – | – | – | – | –
8 | RYGKSAPLGLAG ([2Abz]RYGKSAPLGLAG[Tyr(3-NO2)]-NH2) [LNK027] | 66% | 99% | 99% | 3% | 9% | 17% | 99% | 97% | 98% | – | – | – | – | – | – | – | – | –
9 | SGRVLGPAGLVG (Abz-SGRVLGPAGLVG[Tyr(3-NO2)]) [LNK005] | – | – | – | – | – | – | – | – | – | 0% | 0% | 1% | 15% | 63% | 86% | 100% | 98% | 97%
10 | SGRVLGPANLVG (Abz-SGRVLGPANLVG[Tyr(3-NO2)]) [LNK006] | – | – | – | – | – | – | – | – | – | 0% | 0% | 1% | 19% | 71% | 92% | 98% | 98% | 96%
11 | SGRVLGPLNLSG ([2Abz]SGRVLGPLNLSG[Tyr(3-NO2)]-NH2) [LNK008] | 71% | 99% | 99% | 1% | 1% | 2% | 20% | 72% | 92% | – | – | – | – | – | – | – | – | –
12 | SGRVLPAGLVG ([2Abz]SGRVLPAGLVG[Tyr(3-NO2)]-NH2) [LNK007] | 99% | 95% | 94% | 0% | 0% | 1% | 23% | 79% | 97% | – | – | – | – | – | – | – | – | –
13 | SGRVLPANLVG ([2Abz]SGRVLPANLVG[Tyr(3-NO2)]-NH2) [LNK015] | 94% | 99% | 98% | 0% | 0% | 1% | 25% | 78% | 96% | – | – | – | – | – | – | – | – | –
14 | SGRVLPLGMRA ([2Abz]SGRVLPLGMRA[Tyr(3-NO2)]-NH2) [LNK023] | 96% | 98% | 98% | 2% | 2% | 3% | 38% | 92% | 99% | – | – | – | – | – | – | – | – | –
15 | SGRVLPYAMTA ([2Abz]SGRVLPYAMTA[Tyr(3-NO2)]-NH2) [LNK024] | 55% | 97% | 99% | 1% | 0% | 1% | 44% | 92% | 98% | – | – | – | – | – | – | – | – | –
16 | SGRVLRKAGPAGLVG ([2Abz]SGRVLRKAGPAGLVG[Tyr(3-NO2)]-NH2) [LNK013] | 99% | 99% | 100% | 0% | 2% | 6% | 99% | 94% | 94% | – | – | – | – | – | – | – | – | –
17 | SGRVLTLRKAALPLAM ([2Abz]SGRVLTLRKAALPLAM[Tyr(3-NO2)]-NH2) [LNK020] | 55% | 98% | 99% | 11% | 26% | 45% | 98% | 99% | 99% | – | – | – | – | – | – | – | – | –
18 | SGRVLTLRKAGPAGLVG ([2Abz]SGRVLTLRKAGPAGLVG[Tyr(3-NO2)]-NH2) [LNK011] | 98% | 99% | 98% | 6% | 17% | 35% | 99% | 99% | 99% | – | – | – | – | – | – | – | – | –
